Here are results for twelve substances from US20110229922A1, “SCREENING ASSAYS FOR THE IDENTIFICATION OF BACE2 INHIBITORS” (priority 2008, published 2011).

No end group written: not given here. MR121 = fluorophore label at the N-terminus

In the first assay the target is BACE1 (Homo sapiens, UniProt P56817). Nature of the assay: FRET peptide cleavage assay, BACE1 activity on peptide substrates. The class given is biochemical. The note with it: pH 4.5, substrate 5 μM, FIG. 7.
BACE1, sequence (P56817 46-501, species assumed): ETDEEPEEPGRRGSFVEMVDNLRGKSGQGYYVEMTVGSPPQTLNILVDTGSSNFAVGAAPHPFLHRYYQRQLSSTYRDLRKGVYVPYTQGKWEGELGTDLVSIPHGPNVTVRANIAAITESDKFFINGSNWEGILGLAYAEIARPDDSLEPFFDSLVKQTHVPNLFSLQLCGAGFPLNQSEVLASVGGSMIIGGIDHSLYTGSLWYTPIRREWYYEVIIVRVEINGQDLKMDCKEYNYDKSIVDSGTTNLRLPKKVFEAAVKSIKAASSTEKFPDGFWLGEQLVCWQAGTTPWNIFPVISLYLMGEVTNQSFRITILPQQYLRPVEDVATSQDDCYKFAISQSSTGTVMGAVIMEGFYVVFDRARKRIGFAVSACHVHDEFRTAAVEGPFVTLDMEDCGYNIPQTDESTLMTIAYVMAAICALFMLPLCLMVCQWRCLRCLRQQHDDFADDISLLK
“dabsyl—QTLEFLKIPS—LucY: FRET peptide based on the TMEM27 sequence, dabsyl at N terminus and Lucifer Yellow at C-terminus (dabsyl-QTLEFLKIPS-{Lucifer Yellow})”: the “BACE1 activity against FRET peptide substrate” value is reported as “insignificant activity”.

The target in another assay is T1, BACE2 (Homo sapiens, UniProt Q9Y5Z0).
T1 construct: made in house; host or cells: E. coli BL21(DE3)
T1 sequence (Q9Y5Z0 20-465): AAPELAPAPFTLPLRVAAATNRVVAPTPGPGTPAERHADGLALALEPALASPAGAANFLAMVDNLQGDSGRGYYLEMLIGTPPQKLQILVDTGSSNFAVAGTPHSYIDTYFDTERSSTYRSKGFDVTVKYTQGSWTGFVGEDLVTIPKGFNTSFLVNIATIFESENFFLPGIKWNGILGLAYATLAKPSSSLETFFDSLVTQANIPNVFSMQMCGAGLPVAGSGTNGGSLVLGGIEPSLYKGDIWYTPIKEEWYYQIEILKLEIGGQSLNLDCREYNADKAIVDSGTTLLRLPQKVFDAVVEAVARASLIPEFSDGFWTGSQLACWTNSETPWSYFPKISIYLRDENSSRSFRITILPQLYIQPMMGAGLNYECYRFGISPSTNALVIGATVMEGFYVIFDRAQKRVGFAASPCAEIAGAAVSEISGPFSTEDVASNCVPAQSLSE
Nature of the assay: MR121-peptide cleavage assay. The format is biochemical. On the set-up: scale not given here. The note with it: substrate peptides labelled with MR121 at N-terminus and tryptophan at C-terminus. Here is the method:
In a related assay, a peptide was devised with the same sequence, which was labeled at the N-terminus with MR121 and at the C-terminus with Tryptophan.
Substrate peptides derived from TMEM27 with activity in the MR121-peptide cleavage assay.
(§1) BACE2 enzyme ectodomain was prepared as described in Ostermann et al [“Crystal Structure of Human BACE2 in Complex with a Hydroxyethylamine Transition-state Inhibitor.” Journal of Molecular Biology 355 (2006) 249-261].
Turning to “C QTLEFLKI W: Substrate peptide derived from TMEM27 for MR121-peptide cleavage assay (MR121-CQTLEFLKIW)”, the Relative activity is on record as 96. On to “C TLEFLKI W: Substrate peptide derived from TMEM27 for MR121-peptide cleavage assay (MR121-CTLEFLKIW)”, for which the Relative activity was determined as 28. Take “C QTLEF W: Substrate peptide derived from TMEM27 for MR121-peptide cleavage assay (MR121-CQTLEFW)”: the Relative activity is listed as 21. The same measure, in the same setting: the result for “C LEFLKI W: Substrate peptide derived from TMEM27 for MR121-peptide cleavage assay (MR121-CLEFLKIW)” reads 24; that for “C QTLEFLK W: Substrate peptide derived from TMEM27 for MR121-peptide cleavage assay (MR121-CQTLEFLKW)”, 62; that for “C QTLEFL W: Substrate peptide derived from TMEM27 for MR121-peptide cleavage assay (MR121-CQTLEFLW)”, 32.

“C QELEFLKI W: Substrate peptide derived from TMEM27 for MR121-peptide cleavage assay (MR121-CQELEFLKIW)” had a Relative activity of 100. In turn, “C QTLEFLKIP W: Substrate peptide derived from TMEM27 for MR121-peptide cleavage assay (MR121-CQTLEFLKIPW)” displayed a Relative activity of 75. For the substance “C QTLEFLKIPS W: Substrate peptide derived from TMEM27 for MR121-peptide cleavage assay (MR121-CQTLEFLKIPSW)”, the Relative activity is listed as 91.

For a further assay, the target named is T1, BACE2. Nature of the assay: FRET peptide cleavage assay, BACE2 activity on peptide substrates. The format is biochemical. The note with it: pH 4.5, substrate 5 μM, FIG. 7 and FIG. 9. Here is the method: The FRET assay was performed essentially as described in Grüninger-Leitch et al. [Substrate and inhibitor profile of BACE (beta-secretase) and comparison with other mammalian aspartic proteases. Journal of Biological Chemistry (2002) 277(7) 4687-93]. In summary, a peptide is designed that is cleaved by the protease. The peptide is labelled with dabsyl at the N terminus and Lucifer Yellow at the C-terminus, such that for an intact peptide the Lucifer Yellow fluorescence is quenched by the dabsyl. When the peptide is cut by BACE2, the quenching is removed and a fluorescent signal is generated.
The assay was performed as described in Grueninger et al. 2002 at pH 4.5 using a substrate concentration of 5 μM. All FRET-peptides had the format described.
as §1
With “dabsyl-NSLEFLGIQP-lucifer yellow: FRET peptide based on the sequence of ACE2 at the site equivalent to the BACE2 cleavage site in TMEM27 (dabsyl-NSLEFLGIQP-{Lucifer Yellow})”, the “BACE2 activity against FRET peptide substrate” value was “efficiency greater than that of the TMEM27 substrate”. As for “dabsyl—QTLEFLKIPS—LucY: FRET peptide based on the TMEM27 sequence, dabsyl at N terminus and Lucifer Yellow at C-terminus (dabsyl-QTLEFLKIPS-{Lucifer Yellow})”, the “BACE2 activity against FRET peptide substrate” value is “high activity”.

In another assay the test system is Min6 cells. Nature of the assay: Proliferation assay in Min6 cells (EdU, confocal microscopy). The format is cell-based. The note with it: 48 hours, p<10-6, FIG. 5a.
Description: 50′000 MING B1 cells per well were seeded in a 96-well plate using standard trypsinization method. The following day, serum-supplemented complete medium (described earlier) was removed and replaced by serum-free and low glucose medium (Invitrogen) supplemented with the compound as follows: 10 nM exendin-4 (Sigma-Aldrich) as a positive control was added to the cells every 12 h, to avoid degradation. […] As an absolute positive control cells were also grown in FCS supplemented standard media. Cells were incubated for 48 hours.
After this incubation, medium was discarded and replaced by the serum-supplemented medium containing 10 nM EdU (Invitrogen) and incubated for 1 h at 37° C. […]
Spinning-disc confocal fluorescence microscopy of the 96-well plate has been performed on the high-throughput automated imaging system Opera™ QEHS (PerkinElmer Cellular Technologies, Hamburg, Germany). […] In each well, typically 12 pairs of scanning images were recorded through a UAPO 20×NA 0.7 water immersion objective lens (Olympus) and optimized filter sets by 2 independent high quantum-efficiency 12 bit CCD cameras (1.3 mega pixels monochrome). […]
Confocal micrographs were analyzed using the proprietary software environment of PerkinElmer's Opera (Acapella 1.8, PerkinElmer Cellular Technologies, Hamburg, Germany). […]
For the substance exendin-4, the “proliferation rate compared to basal proliferation rate of starved cells” value was “highly significant proliferation increase”.
